Assay [1] addresses T1, recombinant human CCL16 (human, UniProt O15467 24-120).
T1 construct: also called HCC-4
T1 sequence (looked up): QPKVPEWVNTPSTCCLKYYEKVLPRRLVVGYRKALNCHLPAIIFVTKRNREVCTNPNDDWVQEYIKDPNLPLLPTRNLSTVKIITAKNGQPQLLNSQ
In words: ELISA, plate-bound chemokine (1 ug/ml), antibody 10 ug/ml, OD450. The method in brief:
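Wells coated overnight at 4 °C with 1 μg/ml recombinant human chemokine in PBS, blocked 1 h, then incubated 1 h at room temperature with antibodies at 10 μg/ml in 0.02% Tween 20/PBS. TMB development 15–30 min, stopped with 2 M H2SO4, OD read at 450 nm.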

In assay [2] the target is T2, rhesus CCL20-secreted alkaline phosphatase (SEAP) fusion (rhesus monkey).
T2 construct: also called rCCL20; rhesus CCL20-SEAP; not shown: the SEAP reporter (cDNA from Clontech pSEAP-Enhancer) and its junction to CCL20
T2 chain: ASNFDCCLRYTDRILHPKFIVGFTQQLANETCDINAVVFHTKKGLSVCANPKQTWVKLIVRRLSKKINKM
In words: SPR (Biacore), bivalent format, KD ratio against human CCL20 (Table 17). Here is the method:
(§1) We also used surface plasmon resonance (Biacore™) analysis to test whether HC2/LC3 and HC2/LK3 can bind to mouse, cynomolgus, or rhesus macaque CCL20 orthologs. Monoclonal mouse anti-human placental alkaline phosphatase was immobilized on all four flow cells of a CM5 chip at a flow rate of 25 μl/min. 25 μl of a 2 nM solution of human, rhesus, cynomolgus, or mouse CCL20-SEAP in HBS-EP buffer was injected over flow cell 2, 3, or 4. For antibody binding, 240 μl of 0-80 nM dilutions of HC2/LC3, HC2/LK3, or 2F5-5 MAb in HBS-EP buffer (or buffer alone) was injected over all four flow cells at a flow rate of 50 μl/min. Dissociation followed for 45 min. Flow cell 1 (anti-SEAP alone) was used as a reference for all flow cells. Regeneration of the flow cells was performed with 10 mM glycine at pH 2.25. Due to regeneration effects on the capturing capacity of the chips, antibody injections were performed sequentially from low to high concentration. Data fitting was performed using a 1:1 Langmuir model.
(§2) In contrast, chimeric, HC2/LC3, and HC2/LK3 antibodies effectively bound to human, rhesus, and cynomolgus CCL20 (Table 17).

In assay [3] the target is T3, cynomolgus CCL20-secreted alkaline phosphatase (SEAP) fusion (cynomolgus monkey).
T3 construct: also called cCCL20; cynomolgus CCL20-SEAP; not shown: the SEAP reporter (cDNA from Clontech pSEAP-Enhancer) and its junction to CCL20
T3 chain: T2 chain with V38I
Described as above. Here is the method:
as §1, §2

The target of assay [4] is T2, rhesus CCL20-secreted alkaline …. The assay can be described thus: SPR (Biacore), CCL20-SEAP captured by anti-SEAP, antibody injected (bivalent format), 1:1 Langmuir. Here is the method: as §1, §2
(In general: SPR reads the build-up and loss of mass on a sensor chip optically.)

Assay [5] deals with T3, cynomolgus CCL20-secreted alkaline …. The assay is described as above. On the procedure: as §1, §2
Assay [6] deals with T4, human CCL20-secreted alkaline phosphatase (SEAP) fusion (human, UniProt P78556 27-96).
T4 construct: also called hCCL20; human CCL20-SEAP; not shown: secreted alkaline phosphatase (SEAP), cDNA from pSEAP-Enhancer vector (Clontech)
In words: ELISA (fluorescent HRP substrate): CCL20-SEAP captured on anti-alkaline phosphatase in 5-fold dilutions from 20 nM (x axis, nM), antibody at 1 ug/ml. On the procedure: (§3) To test whether the chimeric and humanized antibodies can bind to mouse, cynomolgus, or rhesus macaque CCL20 orthologs, we used ELISA assays as illustrated in FIG. 15. Recombinant secreted alkaline phosphatase (SEAP)-chemokine fusion proteins were engineered as described in Example 2, expressed and purified for all of the CCL20 orthologs tested. Nunc MaxiSorb flat-bottom black plates were coated with 1 μg/ml mouse anti-placental alkaline phosphatase antibody (Pierce, cat# MA1-19354) in 50 mM sodium bicarbonate, pH 9.4, overnight at 4° C. Plates were then blocked using 1× phosphate buffered saline with Tween-20 (PBST) with 5% bovine serum albumin (BSA) for 2 hours at room temperature. 20 nM SEAP-CCL20 fusion proteins were serially diluted 5-fold in Opti-MEM medium (Invitrogen). Chimeric and humanized (HC2/LC3 and HC2/LK3) antibodies were diluted to 1 μg/ml in 1×PBST with 5% BSA, added to the plates, and incubated for 1 hr at room temperature. The plates were then washed with 1×PBST with 5% BSA three times. […] QuantaBlu fluorescent HRP substrate (Pierce cat#15169) was added for detection of bound antibody by measuring fluorescence in a Molecular Devices M5 (Excitation 325 nm/Emission 420 nm) plate reader.
(§4) While the hamster anti-mouse CCL20 antibody 2F5-5 MAb bound mouse CCL20 with a 50% effective dose (EC₅₀) of 64 pM (data not shown), neither the chimeric nor humanized anti-human CCL20 antibodies bound detectably to mouse CCL20 or rat CCL20 under the conditions described above. By contrast, both the chimeric and humanized antibodies effectively bound to human, rhesus, and cynomolgus CCL20 (FIGS. 16A-C, 17A and B).
(In general: In an ELISA, binding on a coated surface is turned into a signal by an enzyme label.)

The target in assay [7] is T2, rhesus CCL20-secreted alkaline …. Described as above. On the procedure:
as §3, §4

Assay [8] addresses T3, cynomolgus CCL20-secreted alkaline …. Described as above. Here is the method:
as §3, §4

Residue numbers refer to the chain shown, from its start.

Experimental findings from US20160046707A1 (EISAI R AND D MANAGEMENT, published 2016) are described below.

T4 sequence (P78556 27-96): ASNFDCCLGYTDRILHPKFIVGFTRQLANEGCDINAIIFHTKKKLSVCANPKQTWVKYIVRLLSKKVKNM

B1: mouse anti-human CCL20 monoclonal antibody 36F7C10 (antibody, V domains shown)
VH: QVQLQQPGAELVKPGASVKMSCKASGYTFTNYWMHWVKQRPGQGLEWIGVIDPSDSYTTYNQKFKGKATLTVDTSSSTAYMQLSSLTSEDSAVYYCTRGNYGVDYAMDYWGQGTSVTVSS
VL: DIQMTQSPASLSASVGETVTITCGASENIYGALNWYQRKQGKSPQLLIYGATNLADGMSSRFSGSGSGRQYSLKISSLHPDDVATYYCQNVLITPYTFGGGTKLEIK
notes: Mouse hybridoma antibody; also called MouseMAb; parental mouse clone 36F7C10
With B1, the binding result in assay [1] is “no binding (tested: 10 ug/ml)”.

B2: chimeric 36F7C10 antibody (36F7C10-hFc) (antibody, V domains shown)
VH: B1 VH
VL: B1 VL
notes: also called chimeric 36F710; Chimeric MAb
Broadly, the koff is the first-order rate constant of dissociation. A word on the kon: it is the rate constant with which the complex forms. High values mean fast association, low ones slow association. The EC50 is the concentration at which the effect is half-maximal. In the case of B2, the “fold higher KD than for human CCL20” value in assay [2] and in assay [3] was about 3 fold throughout. The Kd in assay [4] turned out to be 0.00605 nM; in assay [5], 0.0132 nM. The dissociation rate constant (koff) was 1.78e-05 s⁻¹ in assay [4] and 5.04e-05 s⁻¹ in assay [5]. Besides, the kon is 2.94e+06 M⁻¹ s⁻¹ in assay [4] and 3.83e+06 M⁻¹ s⁻¹ in assay [5]. The EC50 in assay [6] is 0.0336 nM; in assay [7] it was 0.0498 nM; in assay [8], 0.101 nM.

B3: humanized anti-human CCL20 antibody 36LK3/36HC2 (antibody, human IgG1, kappa, V domains shown)
VH: QVQLVQSGAEVKKPGASVKVSCKASGYTFTNYWMHWVRQAPGQGLEWMGVIDPSDSYTTYAQKFQGRVTMTVDTSTSTVYMELSSLRSEDTAVYYCARGNYGVDYAMDYWGQGTLVTVSS
VL: DIQMTQSPSSLSASVGDRVTITCGASENIYGALNWYQRKPGKAPKLLIYGATNLADGVPSRFSGSGSGRDYTLTISSLQPEDFATYYCQNVLITPYTFGQGTKLEIKR
notes: expressed in HEK293 cells; also called HC2/LK3; HC2LK3
Regarding B3, the “fold higher KD than for human CCL20” value in assay [2] and in assay [3] was about 3 fold each time. For the same molecule, the Kd in assay [4] turned out to be 0.0312 nM; in assay [5], 0.0283 nM. The koff in assay [4] came out at 8.21e-05 s⁻¹; in assay [5] it was 0.000149 s⁻¹. The values for the kon in assay [4] and in assay [5] were 2.63e+06 M⁻¹ s⁻¹ and 5.28e+06 M⁻¹ s⁻¹, respectively. Further, the EC50 in assay [6] amounted to 0.0459 nM; in assay [7], 0.0629 nM; in assay [8] it was 0.162 nM.

B4: humanized anti-human CCL20 antibody 36LC3/36HC2 (antibody, human IgG1, kappa, V domains shown)
VH: B3 VH
VL: B3 VL with G24R, R38Q, D70Q, T72S, Q100G
notes: expressed in HEK293 cells; also called HC2/LC3; HC2LC3
In the case of B4, the “fold higher KD than for human CCL20” value in assay [2] is about 3 fold. Moreover, the “fold higher KD than for human CCL20” value in assay [3] is about 3 fold. Moreover, the binding result in assay [1] is “no binding (tested: 10 ug/ml)”. In assay [4], this molecule yielded a Kd of 0.0182 nM, a koff of 7.51e-05 s⁻¹ and a kon of 4.13e+06 M⁻¹ s⁻¹. Moreover, in assay [5], the Kd is 0.0155 nM, the koff amounted to 0.000134 s⁻¹ and the kon came out at 8.64e+06 M⁻¹ s⁻¹.
